Laboratory results published in patent US6645504B1, “Bystander suppression of type I diabetes by oral administration of glucagon” (AutoImmune Inc., priority 1987, dated 2003).

Assays:
TGF-β = assay: Measurement of TGF-β activity in serum-free culture supernatants of spleen cells; format: cell-based, Lewis rats
Description: Measurement Of TGF-β Activity In Serum-Free Culture Supernatants. Serum free culture supernatants were collected as previously described (Kehri, et al. J. Exp. Med. 163: 1037-1050, 1986; Wahl, et al. J. […] Thereafter cells were washed three times and resuspended in serum-free medium for the remainder of the 72 hour culture, collected, then frozen until assayed. Determination of TGF-β content and isoform type in supernatants was performed using a mink lung epithelial cell line (American Type Culture Collection, Bethesda, Md. #CCL-64) according to Danielpour et al. (supra), and confirmed by a Sandwich Enzyme Linked Immunosorbent Assay (SELISA) assay as previously described (Danielpour et al. Growth Factors 2: 61-71,1989). The percent active TGF-β was determined by assay without prior acid activation of the samples.

EAE = assay: In vivo bystander suppression of EAE (MBP/CFA plus secondary antigen); parameters: species or system Lewis rats; conditions: MBP fed before MBP/CFA immunization; FIG. 6B
Description: Immunization Of Animals. Animals were immunized with 25 μg of MBP in the footpad, emulsified in an equal volume of CFA containing 4 mg/ml of Mycobacterium tuberculosis (Difco Labs, Detroit, Mich.) in order to induce a substantial EAE disease state. For in vivo bystander suppression experiments, 50-300 μg of the secondary antigens OVA, BSA or KLH were injected subcutaneously in the same footpad in 100 μl PBS 8 hours after primary immunization with MBP CFA.
Clinical Evaluation. Animals were evaluated in a blinded fashion every day for evidence of EAE in order to correlate the clinical manifestations of Bystander Suppression with the in vitro assays described below. Clinical severity of EAE was scored as follows: 0, no disease; 1, limp tail; 2, hind limb paralysis; 3, hind limb paraplegia, incontinence; 4, tetraplegia; 5, death. Mean maximal clinical severity was calculated as previously described for each experimental group (7). Statistical analysis was performed using a one-tailed student's t test and a chi square analysis for comparing incidence between groups.
Induction Of Oral Tolerance. Animals were fed 1 mg MBP, OVA, BSA or KLH dissolved in 1 ml PBS or PBS alone, by gastric intubation using an 18-gauge stainless steel animal feeding needle (Thomas Scientific, Swedesboro, N.J.). Animals were fed five times (total dose of 5 mg), at intervals of 2-3 days with the last feeding 2 days before immunization.

DTH responses = DTH responses in animals fed MBP or MBP peptides; format: in vivo, Lewis rats; conditions: FIG. 15
Source text: Guinea pig MBP peptide 131-150 was ineffective in this case. Peptides were also fed with STI which prevents their breakdown by gastric juices and enhances their biological effect. DTH responses to whole MBP were suppressed by feeding MBP or any one of the MBP-peptides 21-40, or 71-90.

[1] = spleen cells of MBP-fed animals stimulated with concanavalin-A

B1: MBP: Guinea pig myelin basic protein purified from brain tissue (protein, UniProt P25188 1-167, looked up)
Myelin basic protein: ASQKRPSQRHGSKYLATASTMDHARHGFLPRHRDTGILDSIGRFFGSDRAAPKRGSGKDSHHAARTTHYGSLPQKSQRSQDENPVVHFFKNIVTPRTPPPSQGKGRGLSLSRFSWGAEGQKPGFGYGGRADYKSKGFKGAHDAQGTLSKIFKLGGRDSRSGSPMARR
B1 was tested, and the “active TGF-β” value (TGF-β; [1]) was “No active TGF-β was observed”, the “latent TGF-β” value (TGF-β; [1]) was 2.1 ± 0.45 ng/mL and the “TGF-β in the active form” value (TGF-β; spleen cells of fed animals stimulated in vitro with the fed antigen) was 68±9%. The “amount of TGF-β” value (TGF-β; spleen cells of fed animals stimulated in vitro with the fed antigen, serum-free) was 6.8 ± 1.7 ng/mL, the disease severity (EAE) was 1.1±0.1 and the “DTH responses to guinea pig MBP peptide 71-90” value (DTH responses) was “suppressed”. For the same molecule, the “DTH responses to whole MBP” value (DTH responses) was “suppressed”.
